Test results reported in patent WO2010082134A1 (dated 2010).

T1: B. anthracis lethal factor (LF) (Bacillus anthracis, UniProt P15917 34-809)
T1 sequence: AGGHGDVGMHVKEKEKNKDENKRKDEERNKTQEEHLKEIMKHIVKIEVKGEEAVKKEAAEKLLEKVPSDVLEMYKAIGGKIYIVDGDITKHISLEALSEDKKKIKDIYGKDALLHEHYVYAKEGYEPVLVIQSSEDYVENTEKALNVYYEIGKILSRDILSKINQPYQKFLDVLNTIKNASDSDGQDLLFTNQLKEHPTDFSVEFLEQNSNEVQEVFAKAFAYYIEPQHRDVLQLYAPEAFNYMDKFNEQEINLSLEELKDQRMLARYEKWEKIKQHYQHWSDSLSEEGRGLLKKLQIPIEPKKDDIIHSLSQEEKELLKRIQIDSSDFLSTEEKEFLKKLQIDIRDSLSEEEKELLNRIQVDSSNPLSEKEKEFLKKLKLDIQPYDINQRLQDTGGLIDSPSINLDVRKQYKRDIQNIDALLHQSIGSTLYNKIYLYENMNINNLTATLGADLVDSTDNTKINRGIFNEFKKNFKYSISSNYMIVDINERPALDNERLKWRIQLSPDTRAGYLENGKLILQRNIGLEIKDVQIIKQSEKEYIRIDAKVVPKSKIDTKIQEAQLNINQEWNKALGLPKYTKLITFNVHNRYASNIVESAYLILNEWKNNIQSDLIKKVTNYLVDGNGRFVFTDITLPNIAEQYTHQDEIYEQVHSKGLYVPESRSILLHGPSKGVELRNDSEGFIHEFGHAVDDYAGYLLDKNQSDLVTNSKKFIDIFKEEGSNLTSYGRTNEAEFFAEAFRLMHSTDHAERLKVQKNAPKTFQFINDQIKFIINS


Tests used:
[1] = molecular target: B. anthracis protective antigen (PA) (Bacillus anthracis, UniProt P13423 30-764); experiment: hybridoma screening by ELISA for anti-PA antibodies
Sequence of B. anthracis protective antigen (PA) (P13423 30-764 limits assumed): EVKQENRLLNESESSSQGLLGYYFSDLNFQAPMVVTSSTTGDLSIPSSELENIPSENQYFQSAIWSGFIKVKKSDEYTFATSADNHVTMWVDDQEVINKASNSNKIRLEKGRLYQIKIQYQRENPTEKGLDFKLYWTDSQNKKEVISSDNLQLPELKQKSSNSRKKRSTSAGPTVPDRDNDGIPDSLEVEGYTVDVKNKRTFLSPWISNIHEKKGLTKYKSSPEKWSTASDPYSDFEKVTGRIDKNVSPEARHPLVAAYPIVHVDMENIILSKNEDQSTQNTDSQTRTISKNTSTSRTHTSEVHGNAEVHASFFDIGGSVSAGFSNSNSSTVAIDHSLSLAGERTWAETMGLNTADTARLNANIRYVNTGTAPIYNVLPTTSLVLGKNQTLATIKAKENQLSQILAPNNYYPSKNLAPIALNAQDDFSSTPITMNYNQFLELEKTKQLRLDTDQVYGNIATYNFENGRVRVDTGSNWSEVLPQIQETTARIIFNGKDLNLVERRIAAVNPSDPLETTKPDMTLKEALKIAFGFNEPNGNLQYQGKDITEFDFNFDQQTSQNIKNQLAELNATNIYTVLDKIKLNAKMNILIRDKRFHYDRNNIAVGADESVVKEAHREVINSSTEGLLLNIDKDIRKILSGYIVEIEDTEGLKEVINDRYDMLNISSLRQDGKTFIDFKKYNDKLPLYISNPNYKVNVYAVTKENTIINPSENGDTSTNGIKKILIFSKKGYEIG

[2] = molecular target: T1, B. anthracis lethal factor (LF); experiment: hybridoma screening by ELISA for anti-LF antibodies

Row | Binder | binding result [1] | binding result [2]
1 | human monoclonal antibody IQNPA (antibody, V domains shown) VH: QVQLVQSGAEVKKPGASVKVSCKASGYTFTSNAIQWVRQAPGQRLEWVGWINGGDGNTKYSQKFQGRVTISRDISASTAYMELSSLRSEDTAVYYCARHRLQRGGFDPWGQGTLVTVSS VL: EIVLTQSPGTLSLSPGERATLSCRASQSVSYSSLAWYQQKPGQAPSLLIYGASSRATGIPDRFSGSGSGPDFTLTISRLEPEDFAVYYCQHYGNSPYTFGQGTKLEIKR | binds | 
2 | human monoclonal antibody IQNLF (antibody, V domains shown) VH: EVQLLESGGGLVQPGGSLRLSCSGSGFMFSSYAMSWVRQAPGKGLEWVSGISGSGGTTNYADSVKGRFTISRDNSKNTLYMQMNSLRAEDTAVYYCAKDGVYGRLGGSDYWGQGTLVTVSS VL: EIVLTQSPDFQSVSPKEKVTITCRASQSVGSSLHWYQQKPDQSPKLLIKYASQSFSGVPSRFSGSGSGTDFTLTINSLETEDAATYYCHQSSSLPLTFGGGTKVEIKR |  | binds
